Laboratory results published in patent US20170022281A1 (AbbVie / Abbott, published 2017).

Legend:
[1] = biological target: T1, human PRLR ECD-Fc fusion protein (human, UniProt P16471 25-233); test: ELISA on ECD
T1 construct: not shown: Fc region (captured by goat anti-human Fc)
T1 sequence: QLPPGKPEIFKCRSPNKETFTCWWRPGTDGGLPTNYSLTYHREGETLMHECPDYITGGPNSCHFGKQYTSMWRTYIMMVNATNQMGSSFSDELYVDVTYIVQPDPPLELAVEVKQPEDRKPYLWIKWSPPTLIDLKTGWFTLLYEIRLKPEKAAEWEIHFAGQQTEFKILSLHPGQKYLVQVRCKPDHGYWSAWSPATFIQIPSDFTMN
Method in brief: (§1)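 PRLR was captured on blocked plates for 1 h, then incubated 1 h with serial antibody dilutions in PBS pH 7.4/0.05% Tween 20 containing 10% Superblock. HRP secondary and TMB gave signal read at 450 nm, and EC50 came from curve fitting.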

[2] = biological target: T2, cyno PRLR ECD-his6 protein (cyno); test: ELISA on ECD
T2 chain: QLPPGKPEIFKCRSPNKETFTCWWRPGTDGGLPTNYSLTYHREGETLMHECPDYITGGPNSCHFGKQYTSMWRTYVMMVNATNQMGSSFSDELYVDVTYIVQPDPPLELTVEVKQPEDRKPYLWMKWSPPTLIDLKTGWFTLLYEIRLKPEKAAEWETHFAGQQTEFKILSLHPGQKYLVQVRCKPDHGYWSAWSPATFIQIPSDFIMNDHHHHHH
Method in brief: as §1

[3] = biological target: T3, human PRLR (Biacore antigen) (human, UniProt P16471 25-234, limits assumed); test: SPR simultaneous binding; PRLR held by surface mAb Ab21
T3 construct: The construct injected over captured antibody is not described (a soluble form is likely); also called huPRLR
T3 sequence: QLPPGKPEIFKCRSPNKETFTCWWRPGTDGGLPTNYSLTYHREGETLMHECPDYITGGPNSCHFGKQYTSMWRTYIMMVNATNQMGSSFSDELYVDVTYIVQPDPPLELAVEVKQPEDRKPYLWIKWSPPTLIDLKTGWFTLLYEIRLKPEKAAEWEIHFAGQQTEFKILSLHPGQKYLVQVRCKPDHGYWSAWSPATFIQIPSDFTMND
Description: (§2) Running buffer was HBS-EP+ (10 mM Hepes, pH7.4, 150 mM NaCl, 3 mM EDTA, 0.05% surfactant). Assay was performed at 12° C. using Biacore T200 and CM5 sensor chips with anti-human IgG (Pierce) amine-coupled in all 4 flow cells to ˜2000 RU.
(§3) Separate test mAbs were captured in flowcells 2, 3 & 4 (flowcell 1 was reference, no test mAb). All 4 flowcells were then blocked by injection with isotype control mAb at 50 ug/ml. All 4 flowcells were then injected with antigen or buffer only (buffer only is for double referencing, done for each mAb pair individually). All 4 flowcells were then injected with 2nd test mAb at 10 ug/ml. All 4 flowcells were then regenerated with glycine, pH1.5.

[4] = biological target: T3, human PRLR (Biacore antigen); test: SPR simultaneous binding; PRLR held by surface mAb Ab30
Description: as §2, §3

[5] = biological target: T3, human PRLR (Biacore antigen); test: SPR simultaneous binding; PRLR held by surface mAb Ab39
Description: as §2, §3

[6] = biological target: T3, human PRLR (Biacore antigen); test: SPR simultaneous binding; PRLR held by surface mAb Ab48
Description: as §2, §3

[7] = biological target: T3, human PRLR (Biacore antigen); test: SPR simultaneous binding; PRLR held by surface mAb Ab49
Description: as §2, §3

[8] = biological target: T3, human PRLR (Biacore antigen); test: SPR simultaneous binding; PRLR held by surface mAb chAb5
Description: as §2, §3

[9] = biological target: T3, human PRLR (Biacore antigen); test: SPR simultaneous binding; PRLR held by surface mAb chAb6
Description: as §2, §3

[10] = biological target: T3, human PRLR (Biacore antigen); test: SPR simultaneous binding; PRLR held by surface mAb chAb7
Description: as §2, §3

[11] = biological target: T3, human PRLR (Biacore antigen); test: SPR simultaneous binding; PRLR held by surface mAb chAb8
Description: as §2, §3

[12] = biological target: T3, human PRLR (Biacore antigen); test: SPR simultaneous binding; PRLR held by surface mAb LFA102
Description: as §2, §3

B1: Ab6 (antibody, V domains shown)
VH: QVQLQQPGAELVMPGSSVKLSCKASGYTFTTYWMHWVKQRPGQGLEWIGEIDPSDSYSNYNQKFKDKATLTVDKSSSTAYMQLSSLTSEDSAVYYCARNGGLGPAWFSYWGQGTLVTVSA
VL: DIVMTQSQKFMSTTVGDRVSITCKASQYVGTAVAWYQQKPGQSPKLLIYSASNRYTGVPDRFTDSGSGTDFTLTISNLQSEDLADYFCQQYSSYPWTFGGGTKLEIK
notes: murine monoclonal, isotype G1; also called murine Ab6
EC50 [1]: 0.086 nM

B2: Ab5 (antibody, V domains shown)
VH: QVQLQQPGAELVRPGTSVKLSCKASGYTFTSFWMHWVKQRPGQGLEWIGVIDPSDTYTNYNQKFKGKATLTVDTSSSTAYMQLSSLTSEDSAVYYCARGDYSNWFTYWGQGTLVTVSA
VL: DVVMTQTPLSLPVSLGDQASISCRSSQRLVHSNGNTYLHWYLQKPGQSPKLLIYKVSNRFSGVPDRFSGSGSGTDFTLKISRVEAEDLGVYFCSQSTHVPWTFGGGTKLEIK
notes: murine monoclonal, isotype G2a; also called murine Ab5
EC50 [2]: 0.095 nM
EC50 [1]: 0.071 nM

B3: Ab13 (antibody, V domains shown)
VH: QVQLQQPGAELVRPGTSVKLSCKASGYTFTSFWMHWVKQRPGQGLEWIGVIDPSDSHTNYNQKFKGKATLTVNTSSSTAYMHLSSLTSEDSAVYYCARGDYSNWFTYWGQGTLVTVSA
VL: DVVMTQTPFSLPVSLGDQASISCRSSQSLVHSNGNTYLHWYLQKPGQSPKLLIYKVSNRFSGVPDRFSGSGSGTDFTLKISRVEAEDLELYFCSQSTHVPWTFGGGTKLEIK
notes: murine monoclonal, isotype G2a; also called murine Ab13
EC50 [2]: 0.143 nM
EC50 [1]: 0.07 nM

B4: Ab39 (antibody, human IgG1, kappa, V domains shown)
VH: EVQLVQSGAEVKKPGSSVKVSCKASGYTFTSYWIHWVRQAPGQGLEWIGEIDPSDSYTNYNQKFKGRATLTVDKSSSTAYMELSSLRSEDTAVYYCARSFFTNWFAYWGQGTLVTVSS
VL: DVVMTQTPLSLSVTPGQPASISCRSSQSLVHSNGNTYLHWYLQKPGQSPQLLIYKVSNRFSGVPDRFSGSGSGTDFTLKISRVEAEDVGVYFCSQSTHVPFTFGGGTKVEIKR
notes: humanized from Ab7; G1; also called Ab4 HC.1a and Ab4 LC.1a
EC50 [2]: 0.46 nM
EC50 [1]: 0.18 nM
solution mAb binding, % of PRLR binding [3]: -1%
solution mAb binding, % of PRLR binding [4]: 0%
solution mAb binding, % of PRLR binding [5]: -2%
solution mAb binding, % of PRLR binding [6]: 2%
solution mAb binding, % of PRLR binding [7]: 2%
solution mAb binding, % of PRLR binding [8]: 0%
solution mAb binding, % of PRLR binding [9]: 0%
solution mAb binding, % of PRLR binding [10]: 1%
solution mAb binding, % of PRLR binding [11]: 1%
solution mAb binding, % of PRLR binding [12]: 92%

B5: Ab30 (antibody, human IgG1, kappa, V domains shown)
VH: EVQLVQSGAEVKKPGSSVKVSCKASGYTFTSFWMHWVRQAPGQGLEWIGVIDPSDTYTNYNQKFKGRATLTVDESSSTAYMELSSLRSEDTAVYYCARGDYSNWFTYWGQGTLVTVSS
VL: DVVMTQTPLSLSVTPGQPASISCRSSQRLVHSNGNTYLHWYLQKPGQSPQLLIYKVSNRFSGVPDRFSGSGSGTDFTLKISRVEAEDVGVYFCSQSTHVPWTFGGGTKVEIKR
notes: humanized from Ab5; G1; also called Ab2 HC.1a and Ab2 LC.1a
EC50 [2]: 0.1 nM
EC50 [1]: 0.221 nM
solution mAb binding, % of PRLR binding [3]: -1%
solution mAb binding, % of PRLR binding [4]: -1%
solution mAb binding, % of PRLR binding [5]: -2%
solution mAb binding, % of PRLR binding [6]: 6%
solution mAb binding, % of PRLR binding [7]: 6%
solution mAb binding, % of PRLR binding [8]: 0%
solution mAb binding, % of PRLR binding [9]: -1%
solution mAb binding, % of PRLR binding [10]: 0%
solution mAb binding, % of PRLR binding [11]: 6%
solution mAb binding, % of PRLR binding [12]: 103%

B6: Ab40 (antibody, human IgG1, kappa)
heavy: not shown
light: DVVMTQTPLSLSVTPGQPASISCRSSQSLVHSNGNTYLHWYLQKPGQSPQLLIYKVSNRFSGVPDRFSGSGSGTDFTLKISRVEAEDVGVYYCSQSTHVPFTFGGGTKVEIKRTVAAPSVFIFPPSDEQLKSGTASVVCLLNNFYPREAKVQWKVDNALQSGNSQESVTEQDSKDSTYSLSSTLTLSKADYEKHKVYACEVTHQGLSSPVTKSFNRGEC
notes: humanized from Ab7; G1; also called Ab4 HC.1a and Ab4 LC.1b
EC50 [2]: 0.862 nM
EC50 [1]: 4.41 nM
solution mAb binding, % of PRLR binding [3]: -1%
solution mAb binding, % of PRLR binding [4]: -1%
solution mAb binding, % of PRLR binding [5]: -2%
solution mAb binding, % of PRLR binding [6]: 0%
solution mAb binding, % of PRLR binding [7]: 0%
solution mAb binding, % of PRLR binding [8]: 0%
solution mAb binding, % of PRLR binding [9]: -1%
solution mAb binding, % of PRLR binding [10]: 1%
solution mAb binding, % of PRLR binding [11]: 0%
solution mAb binding, % of PRLR binding [12]: 35%

B7: Ab49 (antibody, human IgG1, kappa, V domains shown)
VH: EVQLVQSGAEVKKPGASVKVSCKASGYTFTDYNIHWVRQAPGQGLEWIGYIYPNNDGTGYNQKFKSRATLTVDNSTSTAYMELRSLRSDDTAVYYCARGDGNYVGDMDYWGQGTTVTVSS
VL: DIQMTQSPSSLSASVGDRVTITCRASENIYSYLAWYQQKPGKAPKLLVYNAKTLAEGVPSRFSGSGSGTDFTLTISSLQPEDFATYYCQHHYATPFTFGQGTKLEIKR
notes: humanized from Ab8; G1; also called Ab3 HC.1a and Ab3 LC.1b
EC50 [2]: 0.361 nM
EC50 [1]: 0.0954 nM
solution mAb binding, % of PRLR binding [3]: -1%
solution mAb binding, % of PRLR binding [4]: -1%
solution mAb binding, % of PRLR binding [5]: -2%
solution mAb binding, % of PRLR binding [6]: 0%
solution mAb binding, % of PRLR binding [7]: -1%
solution mAb binding, % of PRLR binding [8]: 0%
solution mAb binding, % of PRLR binding [9]: -2%
solution mAb binding, % of PRLR binding [10]: 0%
solution mAb binding, % of PRLR binding [11]: -1%
solution mAb binding, % of PRLR binding [12]: -2%

B8: Ab7 (antibody, V domains shown)
VH: QVQLQQPGAELVMPGTSVKLSCKASGYTFTSYWIHWVKQRPGQGLEWIGEIDPSDSYTNYNQKFKGKATLTVDRSSSTAYMQLSSLTSEDSAVYYCGRSFFTNWFAYWGQGTLVTVSA
VL: DVVMTQTPLSLPVSLGDQASISCRSSQSLVHSNGNTYLHWYLQKPGQSPKLLIYKVSNRFSGVPDRFSGSGSGTDFTLKINRVEAEDLGVYFCSQSTHVPFTFGSGTKLEIK
notes: murine monoclonal, isotype G1; also called murine Ab7
EC50 [2]: 0.202 nM
EC50 [1]: 0.098 nM

B9: Ab10 (antibody, V domains shown)
VH: EVQLHQSGPELVKPGASVKISCKASGYTFTDYNMHWMKQSHGKSLEWIGYFYPYNGGTGYNQEFKNKATLTVDISSSTAYMELRRLTSEDSAVYYCARGGWGIYYAMDYWGQGTSVTVSS
VL: DIQMTQSPASLSASVGETVTITCRASENIYSYLTWYQQKQGKSPQLLVYNAKTLAEGVPSRFSGSGSGTQFSLKINSLQPEDFGSYHCQHHSVTPLTFGAGTKLELK
notes: murine monoclonal, isotype G2a; also called murine Ab10
EC50 [1]: 0.147 nM

B10: Ab11 (antibody, V domains shown)
VH: EVKLVESGGGLVQPGGSLKLSCAASGFTFSDYYMFWVRQTPEKSLEWVAYISNGGGSTYYPDTVKGRFTISRDNAKNTLYLQMSRLKSEDTAMYYCSRQLFYYGSRGAMGYWGQGTSVTVSS
VL: DVLMTQTPLSLPVSLGDQASISCRSSQSIVHSNGNTYLEWYLQKPGQSPKLLIYKVSNRFSGVPDRFSGSGSGTDFTLKISRVEAEDLGVYYCFQGSHVPFTFGSGTKLEIK
notes: murine monoclonal, isotype G1; also called murine Ab11
EC50 [2]: 0.153 nM
EC50 [1]: 0.093 nM

B11: Ab12 (antibody, V domains shown)
VH: DVQLQESGPGLVKPSQSLSLTCTVTGYSITSDYAWNWIRQFPGNKLEWMGYIGYSGRTSFNPSLKSRISITRDTSKNQFFLQLNSVTTEDTATYYCARGGFAMDYWGQGTSVTVSS
VL: QIVLTQSPGIMSASPGEKVTMTCSASSSVTYMYWYQQKPRSSPKPWIYLTSNLASGVPARFSGSGSGTSYSLTISSMEAEDGATYYCQQWSSTPPLTFGGGTKLELN
notes: murine monoclonal, isotype G2a; reported as PRLR agonist; also called murine Ab12
EC50 [2]: < 4 nM
EC50 [1]: 0.069 nM
